According to patent US20040235717A1, “Suppression of androgen receptor transactivation through new pathways to ar and ar coactivators and repressors” (priority 2001, published 2004):

How the values were obtained:
[1] = target: T1, AR-Smad3 interaction (Homo sapiens, UniProt P10275); experiment: GST-Smad3 pull-down of AR with added Smad4; format: binding; conditions: GST-Smad3, [35S]-AR, purified Smad4 added
T1 construct: in vitro transcribed/translated [^35S]-labeled full-length AR and GST-Smad3 (2 μg); made in house; host or cells: AR: TNT-coupled reticulocyte lysate (Promega); GST-Smad3: E. coli BL21 (DE3) pLysS
T1 sequence (P10275 1-920): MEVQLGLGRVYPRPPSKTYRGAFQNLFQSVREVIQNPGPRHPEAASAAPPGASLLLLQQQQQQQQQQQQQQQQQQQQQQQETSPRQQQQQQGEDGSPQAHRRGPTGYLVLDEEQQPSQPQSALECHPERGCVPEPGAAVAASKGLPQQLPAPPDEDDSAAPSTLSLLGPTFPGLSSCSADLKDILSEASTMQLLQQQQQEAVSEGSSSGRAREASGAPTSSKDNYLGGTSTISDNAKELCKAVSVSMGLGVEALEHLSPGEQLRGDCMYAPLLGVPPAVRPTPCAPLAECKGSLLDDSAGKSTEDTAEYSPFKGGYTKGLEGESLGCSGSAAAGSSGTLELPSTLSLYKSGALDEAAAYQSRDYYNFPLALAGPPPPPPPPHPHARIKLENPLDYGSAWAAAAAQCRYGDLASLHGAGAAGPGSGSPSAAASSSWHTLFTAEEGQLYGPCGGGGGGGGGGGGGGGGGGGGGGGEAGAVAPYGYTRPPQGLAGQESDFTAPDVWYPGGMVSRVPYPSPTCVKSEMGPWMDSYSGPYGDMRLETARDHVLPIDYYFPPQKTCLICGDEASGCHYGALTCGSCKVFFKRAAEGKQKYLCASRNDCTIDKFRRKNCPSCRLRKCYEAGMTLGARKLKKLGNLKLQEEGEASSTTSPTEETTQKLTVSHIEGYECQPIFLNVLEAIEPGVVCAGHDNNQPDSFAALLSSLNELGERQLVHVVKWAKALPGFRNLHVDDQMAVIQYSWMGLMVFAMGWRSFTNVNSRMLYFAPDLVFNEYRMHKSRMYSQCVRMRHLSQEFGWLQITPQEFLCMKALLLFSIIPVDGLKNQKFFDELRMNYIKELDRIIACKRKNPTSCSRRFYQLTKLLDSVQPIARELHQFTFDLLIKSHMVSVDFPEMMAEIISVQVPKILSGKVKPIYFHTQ
Protocol: 34. […] Complex bound to GST columns was subjected to SDS-PAGE and autoradiography. […] (C) The indicated amounts of purified Smad4 proteins were added to fixed volumes of in vitro transcribed/translated [^35S]-labeled full-length AR and GST-Smad3 (2 μg) to test for interaction. Bands were detected using a phosphoimager. A representative blot of three independent experiments is shown.
335. Fusion proteins of GST-Smad3 and GST-AR, and GST protein alone were obtained by transforming expressing plasmids into BL21 (DE3) pLysS strain competent cells followed with 1 mM IPTG induction. GST-fusion proteins then were purified by Glutathione-Sepharose™ 4B (Pharmacia). The wtAR and deletion mutant AR (mtAR) proteins labeled with [^35S] were generated in vitro using the TNT-coupled reticulocyte lysate system (Promega). […] The bound proteins were separated on an 8% SDS-polyacrylamide gel and visualized by using autoradiography.

[2] = test system: PSA mRNA expression; experiment: PSA mRNA expression in LNCaP cells, Northern blot; format: cell-based; conditions: presence of androgen
[3] = test system: AR transactivation; experiment: AR transactivation with Smad3/Smad4, CAT reporters in PC3-AR2, PC-3 and LNCaP cells; format: cell-based, human; conditions: PC3-AR2, MMTV-CAT
Protocol: 32. […] LNCaP cell were transfected with Smad3 or Smad4 expression vector instead of PC-3(AR)2 cells in experiments otherwise identical with those in A (B), PC-3(AR)2 cells stably transfected with AR were over-expressed with the indicated amounts of Smad3 or Smad4 or SRC-1. 3 μg of MMTV-CAT was used as a reporter plasmid in all experiments. All values represent the averages±SD of four independent experiments. […] PSA expression level was determined by Northern blotting. The probe was obtained from exon 1 of the PSA gene and labeled with [α-^32P] dCTP. A β-actin probe was used as a control for equivalent mRNA loading. (C, Table 1) The RNA samples from (A) were reverse transcribed to cDNAs and all of the samples were subjected to real-time CR using an ABI Prism 7700 Sequence Detection System (Perkin-Elmer Applied bio systems). PCR was performed using the SYBR Green PCR Core Reagents kit (Perkin-Elmer Applied Bio systems). PSA and β-actin forward, reverse primers concentrations were 2.5 μM. To reduce variability between replicates, PCR premixes which contained all reagents except for total RNA were prepared and aliquoted into 1.5 ml microfuge tubes. Specific PCR amplification products were detected by the fluorescent double-stranded DNA-binding dye SYBR Green core reagent kit. Experiments were performed with triplicates for each data point.
37. […] (A) PC3-AR2, SW480·C7, and PC-3 cells were transiently co-transfected with either MMTV-CAT, PSA-CAT, 5XARE-CAT, or (TAT)2-CAT (3 μg), in the presence of AR, Smad3, Smad4 or Smad3/Smad4 as indicated. Each CAT activity is presented relative to the transactivation observed in the absence of Smad3. All values represent the mean±SD of three independent experiments.
333. Human prostate cancer DU145 cells and PC-3 cells were maintained in Dulbecco's Minimum Essential Medium containing penicillin (25 U/ml), streptomycin (25 μg/ml), and 5% fetal calf serum. Transfections were performed using the calcium phosphate precipitation method and cells were harvested after 24 h for the chloramphenicol acetyltransferase (CAT) assay, as described previously (Kang, et al. (1999) J. Biol. Chem. 274, 8570-8576). The CAT activity was visualized and quantitated by STORM 840 (Molecular Dynamics). At least three independent experiments were carried out in each case. The SW480·C7 cells and PC-3(AR)2 cells are the gifts from Dr. Eric J. Stanbridge and Dr. T. J. Brown

[4] = test system: AR transactivation; experiment: AR transactivation, MMTV-luc / (ARE)4-luc luciferase reporter assay; format: cell-based; conditions: LNCaP
[5] = test system: AR transactivation; experiment: AR transactivation, (ARE)4-luc in CWR22 cells; format: cell-based, human
Protocol: (§1) 31. […] (D) The LNCaP cells were transfected with plasmids as indicated for 16 h, and the medium was changed to 0.1% CDS media for 2 days. The cell apoptosis was determined by TUNEL assay (E) The LNCaP cells were transfected with plasmids as indicated for 16 h, harvested, and the cell extracts were subjected to SDS-PAGE. The Akt activity was determined by Western blotting using phospho(S473)-Akt antibody. (F) The U87MG cells were transfected with plasmids as indicated for 16 h, and the medium was changed 0.1% CDS media for 2 days. The cell apoptosis was determined by TUNEL assay. Data for luciferase activity and apoptosis are means±s.d. from three independent experiments.
312. […] The cells were lysed and the luciferase activity was detected by the dual luciferase assay according to standard procedures.

[6] = test system: interaction between AR and PTEN; experiment: Co-immunoprecipitation of AR and PTEN in CWR22 cells; format: cell-based, human
Protocol: 28. […] (C) The cell lysates from the CWR22 were immunoprecipitated by anti-PTEN antibody, followed by Western blot analysis. […] The cells were harvested for co-immunoprecipitation. Lane 1: 10% input; Lane 2: IP by non-immune IgG; Lane 3: IP by anti-AR antibody; Lane 4: The PTEN protein was depleted from the cell lysates by anti-PTEN antibody before IP by anti-AR antibody; Lane 5: IP by anti-PTEN antibody. (E) CWR22 cells were transfected with vector or Akf for 48 h and the cells were harvested for immunoprecipitation assay.
314. The immunoprecipitation and Western blotting were performed as previously described (Qiu et al. (1998) Nature 393, 83-5). The cell extracts (1 mg) were immunoprecipitated with the indicated antibody. The immunocomplexes were subjected to 8% SDS-PAGE and immunoblotted with the indicated antibody.

[7] = test system: Akt; experiment: Akt activity in LNCaP cells, Western blot with phospho-Akt (Ser473) antibody; format: cell-based; conditions: LNCaP
Protocol: 18. […] (A) Akt suppressed androgen/AR-induced p21 promoter activity. […] (B) Androgen/AR-induced PC-3(AR)6 apoptosis and p21 protein expression was blocked by Akt PC-3(AR)6 was transfected with pCDNA3, cAkt, or dAkt, as indicated, for 16 h. […] (C) AR-induced p21 protein expression was enhanced by dAkt in LNCaP cells. […] LNCaP stable transfection with dAkt was confirmed by western blot assay using phospho-Akt (Ser473) antibody. […] TPA was then added for another 24 h and cell apoptosis was determined by TUNEL assay. […] IGF-1 was added for another 30 min, followed by 10 nM TPA treatment for another 24 h. The apoptosis was determined by TUNEL assay. The data are means±s.d. from three independent experiments.
as §1

[8] = test system: AR protein levels; experiment: AR protein (Western blot) and AR mRNA (Northern blot) levels; format: cell-based; conditions: LNCaP; 10 nM DHT
[9] = test system: U87MG cells; experiment: PTEN-induced apoptosis in AR-negative U87MG cells, TUNEL assay; format: cell-based
Protocol: as §1
311. For the apoptosis assay, the cells were transfected with plasmids for 24 h and grown in 0.1% charcol-stripped serum (CDS) media. The apoptosis was determined 2 days after transfection using the TUNEL assay according to the standard procedures (Oncogene). At least 200 cells were scored for each sample and data are means±s.d. from three independent experiments.

[10] = test system: LNCaP cells; experiment: PTEN-induced apoptosis in LNCaP cells, TUNEL assay; format: cell-based

B1: Smad4: candidate tumor suppressor, shared component of Smad signaling (protein)
chain: MDNMSITNTPTSNDACLSIVHSLMCHRQGGESETFAKRAIESLVKKLKEKKDELDSLITAITTNGAHPSKCVTIQRTLDGRLQVAGRKGFPHVIYARLWRWPDLHKNELKHVKYCQYAFDLKCDSVCVNPYHYERVVSPGIDLSGLTLQSNAPSSMMVKDEYVHDFEGQPSLSTEGHSIQTIQHPPSNRASTETYSTPALLAPSESNATSTANFPNIPVASTSQPASILGGSHSEGLLQIASGPQPGQQQNGFTGQPATYHHNSTTTWTGSRTAPYTPNLPHHQNGHLQHHPPMPPHPGHYWPVHNELAFQPPISNHPAPEYWCSIAYFEMDVQVGETFKVPSSCPIVTVDGYVDPSGGDRFCLGQLSNVHRTEAIERARLHIGKGVQLECKGEGDVWVRCLSDHAVFVQSYYLDREAGRAPGDAVHKIYPSAYIKVFDLRQCHRQMQQQAATAQAAAAAQAAAVAGNIPGPGSVGGIAPAISLSAAAGIGVDDLRRLCILRMSFVKGWGPDYPRQSIKETPCWIEIHLHRALQLLDEVLHTMPIADPQPLD
AR-Smad3 interaction [1]: decrease this AR-Smad3 interaction in a dose-dependent manner
Effect on androgen-induced PSA mRNA expression [2]: slight suppression of PSA mRNA expression
Effect on Smad3-enhanced AR transactivation [3]: significantly repressed
Effect on androgen-activated AR transactivation ([3]; 10^−8 M DHT): slightly suppressed

B2: PTEN-#1: PTEN fragment (aa, 1-107) that does not interact with AR (protein)
chain: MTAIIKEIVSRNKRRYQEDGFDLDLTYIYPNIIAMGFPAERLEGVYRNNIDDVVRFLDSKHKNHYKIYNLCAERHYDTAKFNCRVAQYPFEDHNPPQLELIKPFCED
modifications: left off: a dimerising Fc or GST
Effect on PTEN functions (AR degradation, AR transactivation) [4]: only marginal effect

B3: ARf: the interaction domain within AR (aa; 483-651) (protein)
chain: YTRPPQGLAGQESDFTAPDVWYPGGMVSRVPYPSPTCVKSEMGPWMDSYSGPYGDMRLETARDHVLPIDYYFPPQKTCLICGDEASGCHYGALTCGSCKVFFKRAAEGKQKYLCASRNDCTIDKFRRKNCPSCRLRKCYEAGMTLGARKLKKLGNLKLQEEGEASSTTS
modifications: left off: small tags and cut ends
Effect on PTEN suppression of AR transactivation [5]: significantly reduce PTEN suppressive effect on AR transactivation
Interaction between AR and PTEN [6]: disrupted the interaction between AR and PTEN
Effect on PTEN suppression of AR transactivation [4]: dramatically reduce
Effect on PTEN-mediated inhibition of Akt activity [7]: little influence
Effect on PTEN-mediated promotion of AR degradation [8]: dramatically reduce
Effect on PTEN-induced apoptosis [9]: only marginal effects
Effect on PTEN-induced apoptosis [10]: markedly reduced PTEN-induced apoptosis
